Reference: US20230212587A1, “Mutant Hydroxyphenylpyruvate Dioxygenase Polypeptide, Encoding Gene Thereof and Use Therefor” (Beijing Dabeinong Biotechnology Co., Ltd., priority 2019, published 2023)

System: Arabidopsis thaliana T1 plants
Assay: Topramezone tolerance of transgenic Arabidopsis thaliana T1 plants (pesticide damage grade by bleached leaf area, score, resistance evaluation)
Format: in vivo
Parameters: score: scale not given here
Conditions: for tolerance to topramezone, in words: saturation mutation of HPPD from Avena sativa source (label F372X = AsHPPDm-F372X), topramezone 25, 50, 100 g ai/ha; for Resistance Grade / score / Grade 0 / Grade 1 / Grade 2 / Grade 3: HPPD from Avena sativa source; for Grade 0 / Grade 1 / Grade 2 / Grade 3: number of plants
Description: The Arabidopsisthaliana T1 plants into which the AsHPPDm-F372A-02 nucleotide sequence was introduced, Arabidopsis thaliana T1 plants into which the AsHPPD-02 nucleotide sequence was introduced and wild-type Arabidopsisthaliana plants (18 days after sowing) were sprayed with topramezone at four different concentrations, i.e., 25 g ai/ha (one-fold field concentration, 1×), 50 g ai/ha (two-fold field concentration, 2×), 100 g ai/ha (four-fold field concentration, 4×) and 0 g ai/ha (water, 0×) to determine the tolerance of Arabidopsisthaliana to the herbicide. The degree of damage caused by the herbicide was measured for each plant according to the proportion of bleached leaf area (the proportion of bleached leaf area=bleached leaf area/total leaf area×100%) 7 days after spraying (7 DAT): the case where there is basically no bleached phenotype is defined as grade 0, the case where the proportion of bleached leaf area is less than 50% is defined as grade 1,the case where the proportion of bleached leaf area is more than 50% is defined as grade 2, and the case where the proportion of bleached leaf area is 100% grade is defined as grade 3.
According to the method as described above in point 6 of Example 1, the aforementioned Arabidopsisthaliana T1 plants and wild-type Arabidopsisthaliana plants (18 days after sowing) were sprayed with topramezone at three different concentrations respectively, i.e., 25 g ai/ha (one-fold field concentration, 1×), 100 g ai/ha (four-fold field concentration, 4×) and 0 g ai/ha(water, 0×) to detect the tolerance of Arabidopsisthaliana to the herbicide.
According to the method as described above in point 6 of Example 1, the aforementioned Arabidopsisthaliana T1 plants and wild-type Arabidopsisthaliana plants (18 days after sowing) were sprayed with topramezone at three different concentrations respectively, i.e., 25 g ai/ha (one-fold field concentration, 1x), 100 g ai/ha (four-fold field concentration, 4x) and 0 g ai/ha (water, 0x) to detect the tolerance of Arabidopsisthaliana to the herbicide.
According to the method as described above in point 6 of Example 1, the above-mentioned Arabidopsisthaliana T1 plants, Arabidopsisthaliana T1 plants into which the AsHPPD-02 nucleotide sequence was introduced, Arabidopsisthaliana T1 plants into which the PfHPPD-02 nucleotide sequence was introduced, and wild-type Arabidopsisthaliana plants (18 days after sowing) were sprayed with topramezone at four different concentrations respectively, that is, 25 g ai/ha (one-fold field concentration, 1x), 50 g ai/ha (two-fold field concentration, 2x), 100 g ai/ha (four-fold field concentration, 4x) and 0 g ai/ha (water, Ox) to detect the herbicide tolerance of Arabidopsisthaliana.
According to the method as described in point 6 of Example 1, the above-mentioned Arabidopsisthaliana T1 plants and wild-type Arabidopsisthaliana plants (18 days after sowing) were sprayed with topramezone at two different concentrations respectively, that is, 25 g ai/ha (one-fold field concentration, 1x) and 100 g ai/ha (four-fold field concentration, 4x) to detect the herbicide tolerance of Arabidopsisthaliana,. […]

B1: F372G (protein, listed as Avena sativa)
chain: MPPTPATATGAAAAAVTPEHAARSFPRVVRVNPRSDRFPVLSFHHVELWCADAASAAGRFSFALGAPLAARSDLSTGNSAHASLLLRSGALAFLFTAPYAPPPQEAATAAATASIPSFSADAARTFAAAHGLAVRSVGVRVADAAEAFRVSVAGGARPAFAPADLGHGFGLAEVELYGDVVLRFVSYPDETDLPFLPGFERVSSPGAVDYGLTRFDHVVGNVPEMAPVIDYMKGFLGFHEFAEFTAEDVGTTESGLNSVVLANNSEAVLLPLNEPVHGTKRRSQIQTYLEYHGGPGVQHIALASNDVLRTLREMRARTPMGGFEFMAPPQAKYYEGVRRIAGDVLSEEQIKECQELGVLVDRDDQGVLLQIGTKPVGDRPTFFLEMIQRIGCMEKDEVGQEYQKGGCGGFGKGNFSELFKSIEDYEKSLEVKQSVVAQKS
modifications: AsHPPD Amido Acid Sequence
  tolerance to topramezone, in words: better tolerance
Topramezone 25 g ai/ha (1x)
  Resistance Grade: Highly resistant
  score: 0
  Grade 0: 20
  Grade 1: 0
  Grade 2: 0
  Grade 3: 0
Topramezone 50 g ai/ha (2x)
  Resistance Grade: Highly resistant
  score: 0
  Grade 0: 20
  Grade 1: 0
  Grade 2: 0
  Grade 3: 0
Topramezone 100 g ai/ha (4x)
  Resistance Grade: Highly resistant
  score: 0
  Grade 0: 20
  Grade 1: 0
  Grade 2: 0
  Grade 3: 0

B2: F372V (protein, listed as Avena sativa)
chain: MPPTPATATGAAAAAVTPEHAARSFPRVVRVNPRSDRFPVLSFHHVELWCADAASAAGRFSFALGAPLAARSDLSTGNSAHASLLLRSGALAFLFTAPYAPPPQEAATAAATASIPSFSADAARTFAAAHGLAVRSVGVRVADAAEAFRVSVAGGARPAFAPADLGHGFGLAEVELYGDVVLRFVSYPDETDLPFLPGFERVSSPGAVDYGLTRFDHVVGNVPEMAPVIDYMKGFLGFHEFAEFTAEDVGTTESGLNSVVLANNSEAVLLPLNEPVHGTKRRSQIQTYLEYHGGPGVQHIALASNDVLRTLREMRARTPMGGFEFMAPPQAKYYEGVRRIAGDVLSEEQIKECQELGVLVDRDDQGVLLQIVTKPVGDRPTFFLEMIQRIGCMEKDEVGQEYQKGGCGGFGKGNFSELFKSIEDYEKSLEVKQSVVAQKS
modifications: AsHPPD Amido Acid Sequence
  tolerance to topramezone, in words: better tolerance
Topramezone 25 g ai/ha (1x)
  Resistance Grade: Highly resistant
  score: 0
  Grade 0: 20
  Grade 1: 0
  Grade 2: 0
  Grade 3: 0
Topramezone 50 g ai/ha (2x)
  Resistance Grade: Highly resistant
  score: 0
  Grade 0: 20
  Grade 1: 0
  Grade 2: 0
  Grade 3: 0
Topramezone 100 g ai/ha (4x)
  Resistance Grade: Highly resistant
  score: 0
  Grade 0: 20
  Grade 1: 0
  Grade 2: 0
  Grade 3: 0

B3: F372I (protein, listed as Avena sativa)
chain: MPPTPATATGAAAAAVTPEHAARSFPRVVRVNPRSDRFPVLSFHHVELWCADAASAAGRFSFALGAPLAARSDLSTGNSAHASLLLRSGALAFLFTAPYAPPPQEAATAAATASIPSFSADAARTFAAAHGLAVRSVGVRVADAAEAFRVSVAGGARPAFAPADLGHGFGLAEVELYGDVVLRFVSYPDETDLPFLPGFERVSSPGAVDYGLTRFDHVVGNVPEMAPVIDYMKGFLGFHEFAEFTAEDVGTTESGLNSVVLANNSEAVLLPLNEPVHGTKRRSQIQTYLEYHGGPGVQHIALASNDVLRTLREMRARTPMGGFEFMAPPQAKYYEGVRRIAGDVLSEEQIKECQELGVLVDRDDQGVLLQIITKPVGDRPTFFLEMIQRIGCMEKDEVGQEYQKGGCGGFGKGNFSELFKSIEDYEKSLEVKQSVVAQKS
modifications: AsHPPD Amido Acid Sequence
  tolerance to topramezone, in words: better tolerance

B4: F372N (protein, listed as Avena sativa)
chain: MPPTPATATGAAAAAVTPEHAARSFPRVVRVNPRSDRFPVLSFHHVELWCADAASAAGRFSFALGAPLAARSDLSTGNSAHASLLLRSGALAFLFTAPYAPPPQEAATAAATASIPSFSADAARTFAAAHGLAVRSVGVRVADAAEAFRVSVAGGARPAFAPADLGHGFGLAEVELYGDVVLRFVSYPDETDLPFLPGFERVSSPGAVDYGLTRFDHVVGNVPEMAPVIDYMKGFLGFHEFAEFTAEDVGTTESGLNSVVLANNSEAVLLPLNEPVHGTKRRSQIQTYLEYHGGPGVQHIALASNDVLRTLREMRARTPMGGFEFMAPPQAKYYEGVRRIAGDVLSEEQIKECQELGVLVDRDDQGVLLQINTKPVGDRPTFFLEMIQRIGCMEKDEVGQEYQKGGCGGFGKGNFSELFKSIEDYEKSLEVKQSVVAQKS
modifications: AsHPPD Amido Acid Sequence
  tolerance to topramezone, in words: better tolerance
Topramezone 25 g ai/ha (1x)
  Resistance Grade: Highly resistant
  score: 7
  Grade 0: 18
  Grade 1: 0
  Grade 2: 2
  Grade 3: 0
Topramezone 50 g ai/ha (2x)
  Resistance Grade: Highly resistant
  score: 0
  Grade 0: 20
  Grade 1: 0
  Grade 2: 0
  Grade 3: 0
Topramezone 100 g ai/ha (4x)
  Resistance Grade: Highly resistant
  score: 0
  Grade 0: 20
  Grade 1: 0
  Grade 2: 0
  Grade 3: 0

B5: F372Q (protein, listed as Avena sativa)
chain: MPPTPATATGAAAAAVTPEHAARSFPRVVRVNPRSDRFPVLSFHHVELWCADAASAAGRFSFALGAPLAARSDLSTGNSAHASLLLRSGALAFLFTAPYAPPPQEAATAAATASIPSFSADAARTFAAAHGLAVRSVGVRVADAAEAFRVSVAGGARPAFAPADLGHGFGLAEVELYGDVVLRFVSYPDETDLPFLPGFERVSSPGAVDYGLTRFDHVVGNVPEMAPVIDYMKGFLGFHEFAEFTAEDVGTTESGLNSVVLANNSEAVLLPLNEPVHGTKRRSQIQTYLEYHGGPGVQHIALASNDVLRTLREMRARTPMGGFEFMAPPQAKYYEGVRRIAGDVLSEEQIKECQELGVLVDRDDQGVLLQIQTKPVGDRPTFFLEMIQRIGCMEKDEVGQEYQKGGCGGFGKGNFSELFKSIEDYEKSLEVKQSVVAQKS
modifications: AsHPPD Amido Acid Sequence
  tolerance to topramezone, in words: better tolerance
Topramezone 25 g ai/ha (1x)
  Resistance Grade: Highly resistant
  score: 0
  Grade 0: 20
  Grade 1: 0
  Grade 2: 0
  Grade 3: 0
Topramezone 50 g ai/ha (2x)
  Resistance Grade: Highly resistant
  score: 0
  Grade 0: 20
  Grade 1: 0
  Grade 2: 0
  Grade 3: 0
Topramezone 100 g ai/ha (4x)
  Resistance Grade: Highly resistant
  score: 0
  Grade 0: 20
  Grade 1: 0
  Grade 2: 0
  Grade 3: 0
